Tests used:
codeine = test: In vitro N-demethylation of codeine by mammalian cytochrome P450s in crude yeast cell lysates; settings: crude cell extract with human CPR and cytochrome b5; 0.2 mM substrate, pH 7, 30° C., approximately 20 hours; compared to negative control strain without cytochrome P450s
thebaine [1] = test: In vitro N-demethylation of thebaine by mammalian cytochrome P450s in crude yeast cell lysates; settings: crude cell extract with human CPR and cytochrome b5; 0.2 mM substrate, pH 7, 30° C., approximately 20 hours; compared to negative control strain without P450s
oripavine [2] = test: In vitro N-demethylation of oripavine by mammalian cytochrome P450s in crude yeast cell lysates; settings: crude cell extract with human CPR and cytochrome b5; 0.2 mM substrate, pH 7, 30° C., approximately 20 hours; compared to negative control strain without cytochrome P450s
salutaridine = test: In vitro N-demethylation of salutaridine by mammalian cytochrome P450s in crude yeast cell lysates; settings: crude cell extract with human CPR and cytochrome b5; 0.2 mM substrate, pH 7, 30° C., approximately 20 hours; compared to negative control strain without cytochrome P450s
thebaine [3] = test: Conversion of thebaine by demethylases heterologously expressed in Aspergillus nidulans; settings: 0.5 mM thebaine, Minimal Medium pH 7, 84 hours; supernatant, LC-MS
thebaine [4] = test: Bioconversion of thebaine (N-demethylation to northebaine) by S. cerevisiae expressing cytochrome P450s and CPRs, LC-MS; settings: 0.5 mM thebaine; for activity towards thebaine, converting it to northebaine: co-expressed with CPR_DN5866_c0_g1_i1_Cd9, CPR_DN10898_c0_g1_i1_1A or Cel_CPR_co (at least one of the tested CPRs)
oripavine [5] = test: Bioconversion of oripavine (N-demethylation to nororipavine) by S. cerevisiae expressing cytochrome P450s and CPRs, LC-MS; settings: 0.5 mM oripavine; for nororipavine production when oripavine was administered: co-expressed with CPR_DN5866_c0_g1_i1_Cd9, CPR_DN10898_c0_g1_i1_1A or Cel_CPR_co
thebaine [6] = test: In planta conversion of thebaine by transient expression of demethylases and CPRs in Nicotiana benthamiana leaves; settings: co-expressed with CPR_DN10898_c0_g1_i1_co or Cel_CPR_co; leaves re-infiltrated with 0.5 mM thebaine after 4 days, measured 1 day after
[7] = pH 7, 72 h, co-expressed with Cel_CPR

## Hs_CYP3A4: Cytochrome P450 3A4 (P08684), Homo sapiens
codeine
  in vitro N-demethylation activity on codeine: detected
Thebaine [1]
  in vitro N-demethylation activity on Thebaine: detected
Oripavine [2]
  in vitro N-demethylation activity on oripavine: detected
salutaridine
  in vitro N-demethylation activity on salutaridine: detected

B1: P450_DN12791_co: P450_DN_12791 from T. piriforme, codon optimized for S. cerevisiae (pEV32227) (protein)
chain: MAILQNLVLQSDQRHLGVVTAAVFLSAYALYRHESKKELGNECPTVPYTNPMFGSTDEYRKNPAAFVEKWSAALGPVFRVHIFGRMQTVVSGRYVREVLFNDNFSFVEGIRTRFDLRLLTGIPNSHLNDKDVREVVVKSLTAQMKKYTPRAVHYLSVGLQEALGDLKDPRTLDNLFLTVQNMVAKASASIFVGEELCNNIELVDTFKHVTSDIGSEIRLDNTWLEFFKTINQIRMWYVGKHSPRVTKHRRQLIQAMAPEIDRRLQGLAGNDPSWTRPEDILQEIMENYPSPSTVPADIYTYYANWMIVLIFASVHTTTEHATIVLYRLLQQPELIDELLQEQKEALGQGTVFTGEVIRKLVKLDSVCRESLRIKNEYFGLPHRNMSHENISLSNGVVIKPGDNVMLNVWTNHHDSDLQKDVHGNHDKFEPFRYVNADRPATKIGDDYLIFGEGKHACPGRWFALQEIKTIVSVLIRDYTLTPCGPIVFPSGTSTGIPSGEVTIQRKSEV
modifications: codon-optimized; Thamnostylum piriforme
Thebaine [3]
  northebaine production in Aspergillus nidulans vs vector control: production of northebaine was achieved
Thebaine [4]; pH 7, co-expressed with Cel_CPR_co, 72 h, no significant difference between codon optimized and non-codon optimized versions
  thebaine N-demethylation activity: lower
Oripavine [5]; pH 7, co-expressed with Cel_CPR_co, 72 h
  nororipavine titers: highest nororipavine titers

B2: P450_DN5615_c2 g1_i9_co: codon-optimized cytochrome P450 candidate from Cunninghamella echinulata (protein, listed as Cunninghamella echinulata)
chain: MSQFISTISQYWDVNNFIDQQAWSRFYETYLLKYTDSKAKRLTIGVSVSLLLLGYGIKRLLTPPKHLRHIKHASFLRFTYNFVIKGVTPKEMHTTVSKKIVEENNGFYLQLERTGWVVYVANPEAVKQVLLKSDIFPKMDFSKLASEEGSYFEKFIGFKNILMTTGSEWLKHRKLTNPAFHRSLPAKLFGETAQGLFKIWDNEYNDKPFEVNIHNMNERITLDIIGKAGFAFDFNAVADEKSPWKKTYDIINTAASDPLFFMFPILENKLLWLFPKRQESFKKLDEWKAMLTSVIENKRRLLKDNIDQGVEEAEKDLLTLMIESEFRGEGVLTKEELIGNLTVFFLAGHDTTSFALTSAIYYMARYPEIQEKARQEVNSILCPNGEPNEGILPTIEDTKKLVYLNQIMKESMRIGNPVLFLLSPRQATKDFNLNGTFIPKGTQVNINIHDLHHSSNVWDDPDTFNPDRFAPGGEADKKTGIAWVPFSNGSRQCLGMNFSLLEQRVILSCLLRKYEWTLPENSIHKNDMISKFDLIPSPIDMKIRFERRY
modifications: codon-optimized
Thebaine [4]; [7]
  demethylase activity towards thebaine (northebaine), C. echinulata P450 candidates: displayed demethylase activity towards thebaine and oripavine
Oripavine [5]; [7]
  demethylase activity towards oripavine (nororipavine), C. echinulata P450 candidates: displayed demethylase activity towards thebaine and oripavine

B3: Ar_ORZ22410_co: codon-optimized putative cytochrome P450 A0A1X2IUG5 from Absidia repens (protein, listed as Absidia repens)
chain: MNKLFPVGTSNKKKAVLLSLGATVALICRAIYRIYYVPRSLRHIPSVGYFRLIRSILRREDATTRARTVYGPAIKKGNGIYLANFPITWSVFVSSPIAAKSVLMKTDNFPKSMEIFHALGKENPVVRFFGIDNVAIVNGEKWKKQRKVMNPAFHRAMPVQMFGRLMLKGFKNIEKQDYQVPILDFFQRLTLDALGIAGFGFDFHSVDDPESIWTKTYENVRLGLRSPFSFLFPSMDWLLKYIIPGRKELDKSVDKLNALLMSMAQERRLQVRASIDDNVPDSEKDLLTLMLEAELRGEGTASDEQLRSNLAVFFLAGHETTANTMSFCLYNLAMNKEVQSKARQEVLTVLGDEPVDILPQIDELRQMPYIDMVLKENLRRFGPASMLIARKSQEDFDLNGVFIPKNTPVVVETHALHHNPDVWKNPEQFDPERFAPGGEHETCHEGMAWLPFSSGSRGCLGMNFSLAEQRTFLVMLLRKYEWELPEDSIHRNGVKIQNFQNAAPESLEIKFSSRY
Thebaine [4]; pH 7, 72 h
  activity towards thebaine, converting it to northebaine: displayed activity towards thebaine
Oripavine [5]; pH 7, 72 h
  nororipavine production when oripavine was administered: capable of producing nororipavine

B4: Ps_CODM_co: O-demethylase D4N502 from Papaver somniferum, codon optimized; positive control (protein, listed as Papaver somniferum)
chain: METPILIKLGNGLSIPSVQELAKLTLAEIPSRYTCTGESPLNNIGASVTDDETVPVIDLQNLLSPEPVVGKLELDKLHSACKEWGFFQLVNHGVDALLMDNIKSEIKGFFNLPMNEKTKYGQQDGDFEGFGQPYIESEDQRLDWTEVFSMLSLPLHLRKPHLFPELPLPFRETLESYLSKMKKLSTVVFEMLEKSLQLVEIKGMTDLFEDGLQTMRMNYYPPCPRPELVLGLTSHSDFSGLTILLQLNEVEGLQIRKEERWISIKPLPDAFIVNVGDILEIMTNGIYRSVEHRAVVNSTKERLSIATFHDSKLESEIGPISSLVTPETPALFKRGRYEDILKENLSRKLDGKSFLDYMRM
modifications: codon-optimized
Thebaine [6]
  conversion of thebaine into oripavine in N. benthamiana leaves vs negative control: capable of converting thebaine into oripavine
  northebaine levels in N. benthamiana leaves vs negative P19 control: not apparent

B5: Hs_CYP3A5: Cytochrome P450 3A5 (P20815), Homo sapiens (protein, UniProt P20815 1-502, looked up)
Cytochrome P450 3A5: MDLIPNLAVETWLLLAVSLVLLYLYGTRTHGLFKRLGIPGPTPLPLLGNVLSYRQGLWKFDTECYKKYGKMWGTYEGQLPVLAITDPDVIRTVLVKECYSVFTNRRSLGPVGFMKSAISLAEDEEWKRIRSLLSPTFTSGKLKEMFPIIAQYGDVLVRNLRREAEKGKPVTLKDIFGAYSMDVITGTSFGVNIDSLNNPQDPFVESTKKFLKFGFLDPLFLSIILFPFLTPVFEALNVSLFPKDTINFLSKSVNRMKKSRLNDKQKHRLDFLQLMIDSQNSKETESHKALSDLELAAQSIIFIFAGYETTSSVLSFTLYELATHPDVQQKLQKEIDAVLPNKAPPTYDAVVQMEYLDMVVNETLRLFPVAIRLERTCKKDVEINGVFIPKGSMVVIPTYALHHDPKYWTEPEEFRPERFSKKKDSIDPYIYTPFGTGPRNCIGMRFALMNMKLALIRVLQNFSFKPCKETQIPLKLDTQGLLQPEKPIVLKVDSRDGTLSGE
codeine
  in vitro N-demethylation activity on codeine: detected
Thebaine [1]
  in vitro N-demethylation activity on Thebaine: detected
Oripavine [2]
  in vitro N-demethylation activity on oripavine: detected
salutaridine
  in vitro N-demethylation activity on salutaridine: detected

B6: LCOR_01865_co: codon-optimized putative cytochrome P450 A0A068RKI7 from Lichtheimia corymbifera (protein, listed as Lichtheimia corymbifera)
chain: MTEIKDHIYRYRHYIGVAAAVLLVCQQVYHRIFRIPKNLRHLPAIPYGKQLKALQSQENLISRTQRLVFPLLPKAHGVYLNRMPFQWTIYVADPEIARIVFFKPEFANKTSSVLDSIDQNTTLIEFVGNDNVSIVNGHHWKDQRKIMNPAFHRATPVGMFGSLMPKVFRLVEEQPTVPVLELMQKLTLDALGKSVFGFDFGGLDDPDSVWVKTYRLLFDGFTNVIPLVFPRLDGLYRYFSAKRRAQHDAVYKLIDLLDGVADKKRSMLQDDSNSHNDVPEHEKDLLQLMLEAELRGEGNWTKKELRHNMAIFFVAGHDTTSHALTFCLYLLAMNQDIQKKAREEILRVLGDEPKDVFPTLEDCKKLDYLDMVIKESMRIYPPANDILARDVHEDLNVKGIFIPKGAMVSVDIQALHHRPDLWHEPEKFNPDRFLPGGEHDSHEGIAYAPFSSGARQCIALKFSIMQQRVVLAMLLRKFEWELPKESKHKDGIQFEIPFNLAPKDLELIFHKRY
modifications: codon-optimized
Thebaine [4]; pH 7, 72 h
  activity towards thebaine, converting it to northebaine: displayed activity towards thebaine
Oripavine [5]; pH 7, 72 h
  nororipavine production when oripavine was administered: capable of producing nororipavine

Reference: patent publication US11781164B2, “Demethylation of reticuline and derivatives thereof with fungal cytochrome P450” (priority 2017, dated 2023)
